Assay results from article PMC4631590.

Legend:
[1] = target: Corynebacterium efficiens fatty-acid synthase type I (FAS B) (C. efficiens) (UniProt Q8FMV7); experiment: SEC; Superose 6 XK 16/70; 0.1 M bis-tris propane pH 6.8, 0.2 M NaCl, 10% glycerol
[2] = target: Corynebacterium ammoniagenes fatty-acid synthase type I (C. ammoniagenes); experiment: SEC; 0.1 M sodium phosphate pH 6.5, 0.1 M NaCl, 5 mM sodium malonate

Substance: Corynebacterium efficiens fatty-acid synthase type I (FAS B) (from UniProt Q8FMV7 1-3022) (enzyme)
- stoichiometry N [1]: 6

Substance: Corynebacterium ammoniagenes fatty-acid synthase type I (enzyme)
- stoichiometry N [2]: 6
